Experimental findings from patent US20250122303A1, “TREATMENT AND PREVENTION OF CANCER USING HER3 ANTIGEN-BINDING MOLECULES” (Hummingbird Bioscience Pte. Ltd., priority 2021, published 2025) are described below.

For assay [1], the target named is FcgRIIA (H167) (human) (UniProt P12318). In words: Bio-Layer Interferometry (determined as described in Example 7). A general note: In BLI a coated tip is dipped into the sample, and binding shifts an interference pattern.
Assay [2] addresses FcRn (human) (UniProt P55899). The description is as above.
The target in assay [3] is FcgRIIB (human) (UniProt P31994). The assay is described as above.
Chain of FcgRIIB (human) (P31994 46-217 limits assumed): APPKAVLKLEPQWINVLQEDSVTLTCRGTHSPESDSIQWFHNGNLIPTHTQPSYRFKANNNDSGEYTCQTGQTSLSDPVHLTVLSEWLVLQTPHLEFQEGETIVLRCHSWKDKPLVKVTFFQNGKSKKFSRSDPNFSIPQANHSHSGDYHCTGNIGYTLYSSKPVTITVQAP
Assay [4] addresses His-tagged FcγRIIIa (V158) (human) (UniProt P08637). Described as above.
For assay [5], the target named is FcgRIIA (R167) (human) (UniProt P12318). The assay is described as above.
Chain of FcgRIIA (R167) (human) (P12318 36-218 H167R limits assumed): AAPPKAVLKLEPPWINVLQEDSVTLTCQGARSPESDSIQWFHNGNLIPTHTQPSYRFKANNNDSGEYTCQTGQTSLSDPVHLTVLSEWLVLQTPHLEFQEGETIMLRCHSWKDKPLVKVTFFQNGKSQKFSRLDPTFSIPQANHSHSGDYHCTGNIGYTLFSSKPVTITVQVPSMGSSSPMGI
The target in assay [6] is moFcRn (mouse) (UniProt Q61559). Described as above.
The target of assay [7] is recombinant biotinylated human HER3 protein (human) (UniProt P21860). In words: plate ELISA dimerisation assay; human EGFR-His coated, constant HER3-biotin and NRG, antibody varied; blocked partner EGFR-His. Background: In an ELISA, binding on a coated surface is turned into a signal by an enzyme label.
In assay [8] the target is His-tagged human HER3 (human) (UniProt P21860). In words: BLI competition: His-tagged human HER3 on anti-Penta-HIS tips saturated with LJM-716 (400 nM), then MM-121 as competing antibody (300 nM); no unit in the table, the y axis of FIG. 14A is Shift (nm).
The target in assay [9] is human HER3:human NRG1 complex (human) (UniProt P21860). The assay is described as follows: BLI (Octet QK384), antibody captured on AHC sensors, HER3-NRG1 complex (1:1 molar ratio) in solution.

Chain of FcgRIIA (H167) (human) (P12318 36-218 limits assumed): as the sequence (P12318 36-218 H167R limits assumed) above, with R132H counted along it

B1: MM-121 (antibody, INN chains, looked up, human IgG2)
heavy: EVQLLESGGGLVQPGGSLRLSCAASGFTFSHYVMAWVRQAPGKGLEWVSSISSSGGWTLYADSVKGRFTISRDNSKNTLYLQMNSLRAEDTAVYYCTRGLKMATIFDYWGQGTLVTVSSASTKGPSVFPLAPCSRSTSESTAALGCLVKDYFPEPVTVSWNSGALTSGVHTFPAVLQSSGLYSLSSVVTVPSSNFGTQTYTCNVDHKPSNTKVDKTVERKCCVECPPCPAPPVAGPSVFLFPPKPKDTLMISRTPEVTCVVVDVSHEDPEVQFNWYVDGVEVHNAKTKPREEQFNSTFRVVSVLTVVHQDWLNGKEYKCKVSNKGLPAPIEKTISKTKGQPREPQVYTLPPSREEMTKNQVSLTCLVKGFYPSDIAVEWESNGQPENNYKTTPPMLDSDGSFFLYSKLTVDKSRWQQGNVFSCSVMHEALHNHYTQKSLSLSPG
light: QSALTQPASVSGSPGQSITISCTGTSSDVGSYNVVSWYQQHPGKAPKLIIYEVSQRPSGVSNRFSGSKSGNTASLTISGLQTEDEADYYCCSYAGSSIFVIFGGGTKVTVLGQPKAAPSVTLFPPSSEELQANKATLVCLVSDFYPGAVTVAWKADGSPVKVGVETTKPSKQSNNKYAASSYLSLTPEQWKSHRSYSCRVTHEGSTVEKTVAPAECS
A word on the Kd: it is a measure of binding affinity in units of concentration. The term IC50 denotes the concentration at which inhibition is half-maximal. For orientation: koff means the rate constant with which the complex falls apart. Usually kon stands for the rate constant with which the complex forms. For the molecule B1, the Kd in [1] came to 222 nM; in assay [2], 11.5 nM; in assay [3], 1440 nM; in [4], 7050 nM; in [5], 243 nM; in assay [6], 6.69 nM. Further, the Kd in assay [9] came out at 1.92 nM. Moreover, in assay [7], the IC50 stood at 54.2 nM. In [8], the response of the competing antibody (competition table) worked out at 0.693. Also, the koff in assay [9] amounted to 0.000231 s⁻¹. In assay [9], the association rate constant (kon) came to 120000 M⁻¹ s⁻¹.

B2: LJM716 (antibody, INN chains, looked up, human IgG1, V domains shown)
VH: EVQLLESGGGLVQPGGSLRLSCAASGFTFSSYAMSWVRQAPGKGLEWVSAINSQGKSTYYADSVKGRFTISRDNSKNTLYLQMNSLRAEDTAVYYCARWGDEGFDIWGQGTLVTVSS
VL: DIQMTQSPSSLSASVGDRVTITCRASQGISNWLAWYQQKPGKAPKLLIYGASSLQSGVPSRFSGSGSGTDFTLTISSLQPEDFATYYCQQYSSFPTTFGQGTKVEIK
Take B2: the Kd in [9] is 16.8 nM.
